B1: Pistol ribozyme (parent)
chain: GGGUCGUUGUUCCAUAAUCGCGUGGAUAUGGCACGCAAGUUUCUACCGGGCACCGUAAAUGUCCGACUGGAGCCGUUCGGGCGGCUAUAAACAGACCUCAGGCCCGAAGCGUGGCGGCACCUGCCGCCGGUGGUAAAAAAGAUCGGAAGAGCACACGUCU

Variants of: B1
Experiment: aptazyme ON/OFF ratio, guanine; higher = stronger switching; co-transcriptional cleavage with and without guanine

Variant	aptazyme ON/OFF ratio
GGGUCGCUGCGCCAUAAUCGCGUGGAUAUGGCACGCAAGUUUCUACCGGGCACCGUAAAUGUCCGACUGGAGCCGUUCGGGCGGCUAUAAACAGACCUCAGGCCCGAAGCGUGGCGGCACCUGCCGCCGGUGGUAAAAAAGAUCGGAAGAGCACACGUCU [U7C U10C U11G]	1.21
GGGUCGUCUCGACAUAAUCGCGUGGAUAUGGCACGCAAGUUUCUACCGGGCACCGUAAAUGUCCGACUGGAGCCGUUCGGGCGGCUAUAAACAGACCUCAGGCCCGAAGCGUGGCGGCACCUGCCGCCGGUGGUAAAAAAGAUCGGAAGAGCACACGUCU [U8C G9U U10C U11G C12A]	1.07
GGGUCGAGGGACGAUAAUCGCGUGGAUAUGGCACGCAAGUUUCUACCGGGCACCGUAAAUGUCCGACUGGAGCCGUUCGGGCGGCUAUAAACAGACCUCAGGCCCGAAGCGUGGCGGCACCUGCCGCCGGUGGUAAAAAAGAUCGGAAGAGCACACGUCU [U7A U8G U10G U11A C13G]	1.27
GGGUCGAAGCCCGAUAAUCGCGUGGAUAUGGCACGCAAGUUUCUACCGGGCACCGUAAAUGUCCGACUGGAGCCGUUCGGGCGGCUAUAAACAGACCUCAGGCCCGAAGCGUGGCGGCACCUGCCGCCGGUGGUAAAAAAGAUCGGAAGAGCACACGUCU [U7A U8A U10C U11C C13G]	1.07
GGGUCGAUAACAGAUAAUCGCGUGGAUAUGGCACGCAAGUUUCUACCGGGCACCGUAAAUGUCCGACUGGAGCCGUUCGGGCGGCUAUAAACAGACCUCAGGCCCGAAGCGUGGCGGCACCUGCCGCCGGUGGUAAAAAAGAUCGGAAGAGCACACGUCU [U7A G9A U10A U11C C12A C13G]	1.15
GGGUCGAAAUAUUAUAAUCGCGUGGAUAUGGCACGCAAGUUUCUACCGGGCACCGUAAAUGUCCGACUGGAGCCGUUCGGGCGGCUAUAAACAGACCUCAGGCCCGAAGCGUGGCGGCACCUGCCGCCGGUGGUAAAAAAGAUCGGAAGAGCACACGUCU [U7A U8A G9A U11A C12U C13U]	1.22
GGGUCGAUACGUCAUAAUCGCGUGGAUAUGGCACGCAAGUUUCUACCGGGCACCGUAAAUGUCCGACUGGAGCCGUUCGGGCGGCUAUAAACAGACCUCAGGCCCGAAGCGUGGCGGCACCUGCCGCCGGUGGUAAAAAAGAUCGGAAGAGCACACGUCU [U7A G9A U10C U11G C12U]	1.29
GGGUCGCUAUAACAUAAUCGCGUGGAUAUGGCACGCAAGUUUCUACCGGGCACCGUAAAUGUCCGACUGGAGCCGUUCGGGCGGCUAUAAACAGACCUCAGGCCCGAAGCGUGGCGGCACCUGCCGCCGGUGGUAAAAAAGAUCGGAAGAGCACACGUCU [U7C G9A U11A C12A]	1.38
GGGUCGGUUUGGUAUAAUCGCGUGGAUAUGGCACGCAAGUUUCUACCGGGCACCGUAAAUGUCCGACUGGAGCCGUUCGGGCGGCUAUAAACAGACCUCAGGCCCGAAGCGUGGCGGCACCUGCCGCCGGUGGUAAAAAAGAUCGGAAGAGCACACGUCU [U7G G9U U11G C12G C13U]	1.29
GGGUCGUCGUAGGAUAAUCGCGUGGAUAUGGCACGCAAGUUUCUACCGGGCACCGUAAAUGUCCGACUGGAGCCGUUCGGGCGGCUAUAAACAGACCUCAGGCCCGAAGCGUGGCGGCACCUGCCGCCGGUGGUAAAAAAGAUCGGAAGAGCACACGUCU [U8C U11A C12G C13G]	1.16
GGGUCGGACAUUGAUAAUCGCGUGGAUAUGGCACGCAAGUUUCUACCGGGCACCGUAAAUGUCCGACUGGAGCCGUUCGGGCGGCUAUAAACAGACCUCAGGCCCGAAGCGUGGCGGCACCUGCCGCCGGUGGUAAAAAAGAUCGGAAGAGCACACGUCU [U7G U8A G9C U10A C12U C13G]	0.956
GGGUCGGCACAUGAUAAUCGCGUGGAUAUGGCACGCAAGUUUCUACCGGGCACCGUAAAUGUCCGACUGGAGCCGUUCGGGCGGCUAUAAACAGACCUCAGGCCCGAAGCGUGGCGGCACCUGCCGCCGGUGGUAAAAAAGAUCGGAAGAGCACACGUCU [U7G U8C G9A U10C U11A C12U C13G]	1.06
GGGUCGCGAGCGAAUAAUCGCGUGGAUAUGGCACGCAAGUUUCUACCGGGCACCGUAAAUGUCCGACUGGAGCCGUUCGGGCGGCUAUAAACAGACCUCAGGCCCGAAGCGUGGCGGCACCUGCCGCCGGUGGUAAAAAAGAUCGGAAGAGCACACGUCU [U7C U8G G9A U10G U11C C12G C13A]	1.2
GGGUCGUUAACUAAUAAUCGCGUGGAUAUGGCACGCAAGUUUCUACCGGGCACCGUAAAUGUCCGACUGGAGCCGUUCGGGCGGCUAUAAACAGACCUCAGGCCCGAAGCGUGGCGGCACCUGCCGCCGGUGGUAAAAAAGAUCGGAAGAGCACACGUCU [G9A U10A U11C C12U C13A]	1.34
GGGUCGGGGCGGGAUAAUCGCGUGGAUAUGGCACGCAAGUUUCUACCGGGCACCGUAAAUGUCCGACUGGAGCCGUUCGGGCGGCUAUAAACAGACCUCAGGCCCGAAGCGUGGCGGCACCUGCCGCCGGUGGUAAAAAAGAUCGGAAGAGCACACGUCU [U7G U8G U10C U11G C12G C13G]	1.41
GGGUCGCCCCCUUAUAAUCGCGUGGAUAUGGCACGCAAGUUUCUACCGGGCACCGUAAAUGUCCGACUGGAGCCGUUCGGGCGGCUAUAAACAGACCUCAGGCCCGAAGCGUGGCGGCACCUGCCGCCGGUGGUAAAAAAGAUCGGAAGAGCACACGUCU [U7C U8C G9C U10C U11C C12U C13U]	1.03
GGGUCGGAAGUUAAUAAUCGCGUGGAUAUGGCACGCAAGUUUCUACCGGGCACCGUAAAUGUCCGACUGGAGCCGUUCGGGCGGCUAUAAACAGACCUCAGGCCCGAAGCGUGGCGGCACCUGCCGCCGGUGGUAAAAAAGAUCGGAAGAGCACACGUCU [U7G U8A G9A U10G C12U C13A]	1.27
GGGUCGAUCAGGAAUAAUCGCGUGGAUAUGGCACGCAAGUUUCUACCGGGCACCGUAAAUGUCCGACUGGAGCCGUUCGGGCGGCUAUAAACAGACCUCAGGCCCGAAGCGUGGCGGCACCUGCCGCCGGUGGUAAAAAAGAUCGGAAGAGCACACGUCU [U7A G9C U10A U11G C12G C13A]	1.06

Variant	aptazyme ON/OFF ratio
GGGUCGGCCUGCAAUAAUCGCGUGGAUAUGGCACGCAAGUUUCUACCGGGCACCGUAAAUGUCCGACUGGAGCCGUUCGGGCGGCUAUAAACAGACCUCAGGCCCGAAGCGUGGCGGCACCUGCCGCCGGUGGUAAAAAAGAUCGGAAGAGCACACGUCU [U7G U8C G9C U11G C13A]	1.24
GGGUCGAACUACGAUAAUCGCGUGGAUAUGGCACGCAAGUUUCUACCGGGCACCGUAAAUGUCCGACUGGAGCCGUUCGGGCGGCUAUAAACAGACCUCAGGCCCGAAGCGUGGCGGCACCUGCCGCCGGUGGUAAAAAAGAUCGGAAGAGCACACGUCU [U7A U8A G9C U11A C13G]	1.06
GGGUCGUGGAGAUAUAAUCGCGUGGAUAUGGCACGCAAGUUUCUACCGGGCACCGUAAAUGUCCGACUGGAGCCGUUCGGGCGGCUAUAAACAGACCUCAGGCCCGAAGCGUGGCGGCACCUGCCGCCGGUGGUAAAAAAGAUCGGAAGAGCACACGUCU [U8G U10A U11G C12A C13U]	1.12
GGGUCGUCAUCGAAUAAUCGCGUGGAUAUGGCACGCAAGUUUCUACCGGGCACCGUAAAUGUCCGACUGGAGCCGUUCGGGCGGCUAUAAACAGACCUCAGGCCCGAAGCGUGGCGGCACCUGCCGCCGGUGGUAAAAAAGAUCGGAAGAGCACACGUCU [U8C G9A U11C C12G C13A]	1.24
GGGUCGUUUUCGAAUAAUCGCGUGGAUAUGGCACGCAAGUUUCUACCGGGCACCGUAAAUGUCCGACUGGAGCCGUUCGGGCGGCUAUAAACAGACCUCAGGCCCGAAGCGUGGCGGCACCUGCCGCCGGUGGUAAAAAAGAUCGGAAGAGCACACGUCU [G9U U11C C12G C13A]	1.3
GGGUCGACCUGUGAUAAUCGCGUGGAUAUGGCACGCAAGUUUCUACCGGGCACCGUAAAUGUCCGACUGGAGCCGUUCGGGCGGCUAUAAACAGACCUCAGGCCCGAAGCGUGGCGGCACCUGCCGCCGGUGGUAAAAAAGAUCGGAAGAGCACACGUCU [U7A U8C G9C U11G C12U C13G]	1.19
GGGUCGACGCCAUAUAAUCGCGUGGAUAUGGCACGCAAGUUUCUACCGGGCACCGUAAAUGUCCGACUGGAGCCGUUCGGGCGGCUAUAAACAGACCUCAGGCCCGAAGCGUGGCGGCACCUGCCGCCGGUGGUAAAAAAGAUCGGAAGAGCACACGUCU [U7A U8C U10C U11C C12A C13U]	1.16
GGGUCGAAGGAUGAUAAUCGCGUGGAUAUGGCACGCAAGUUUCUACCGGGCACCGUAAAUGUCCGACUGGAGCCGUUCGGGCGGCUAUAAACAGACCUCAGGCCCGAAGCGUGGCGGCACCUGCCGCCGGUGGUAAAAAAGAUCGGAAGAGCACACGUCU [U7A U8A U10G U11A C12U C13G]	1.27
GGGUCGUCUGCCCAUAAUCGCGUGGAUAUGGCACGCAAGUUUCUACCGGGCACCGUAAAUGUCCGACUGGAGCCGUUCGGGCGGCUAUAAACAGACCUCAGGCCCGAAGCGUGGCGGCACCUGCCGCCGGUGGUAAAAAAGAUCGGAAGAGCACACGUCU [U8C G9U U10G U11C]	1.13
GGGUCGCUUAGAUAUAAUCGCGUGGAUAUGGCACGCAAGUUUCUACCGGGCACCGUAAAUGUCCGACUGGAGCCGUUCGGGCGGCUAUAAACAGACCUCAGGCCCGAAGCGUGGCGGCACCUGCCGCCGGUGGUAAAAAAGAUCGGAAGAGCACACGUCU [U7C G9U U10A U11G C12A C13U]	1.18
GGGUCGUUUGACAAUAAUCGCGUGGAUAUGGCACGCAAGUUUCUACCGGGCACCGUAAAUGUCCGACUGGAGCCGUUCGGGCGGCUAUAAACAGACCUCAGGCCCGAAGCGUGGCGGCACCUGCCGCCGGUGGUAAAAAAGAUCGGAAGAGCACACGUCU [G9U U10G U11A C13A]	1.13
GGGUCGCAUACCAAUAAUCGCGUGGAUAUGGCACGCAAGUUUCUACCGGGCACCGUAAAUGUCCGACUGGAGCCGUUCGGGCGGCUAUAAACAGACCUCAGGCCCGAAGCGUGGCGGCACCUGCCGCCGGUGGUAAAAAAGAUCGGAAGAGCACACGUCU [U7C U8A G9U U10A U11C C13A]	1.07
GGGUCGAGUUUCCAUAAUCGCGUGGAUAUGGCACGCAAGUUUCUACCGGGCACCGUAAAUGUCCGACUGGAGCCGUUCGGGCGGCUAUAAACAGACCUCAGGCCCGAAGCGUGGCGGCACCUGCCGCCGGUGGUAAAAAAGAUCGGAAGAGCACACGUCU [U7A U8G G9U]	3.18
GGGUCGCUCGGUGAUAAUCGCGUGGAUAUGGCACGCAAGUUUCUACCGGGCACCGUAAAUGUCCGACUGGAGCCGUUCGGGCGGCUAUAAACAGACCUCAGGCCCGAAGCGUGGCGGCACCUGCCGCCGGUGGUAAAAAAGAUCGGAAGAGCACACGUCU [U7C G9C U10G U11G C12U C13G]	1.13
GGGUCGAAGGUAGAUAAUCGCGUGGAUAUGGCACGCAAGUUUCUACCGGGCACCGUAAAUGUCCGACUGGAGCCGUUCGGGCGGCUAUAAACAGACCUCAGGCCCGAAGCGUGGCGGCACCUGCCGCCGGUGGUAAAAAAGAUCGGAAGAGCACACGUCU [U7A U8A U10G C12A C13G]	1.06
GGGUCGAUACCGAAUAAUCGCGUGGAUAUGGCACGCAAGUUUCUACCGGGCACCGUAAAUGUCCGACUGGAGCCGUUCGGGCGGCUAUAAACAGACCUCAGGCCCGAAGCGUGGCGGCACCUGCCGCCGGUGGUAAAAAAGAUCGGAAGAGCACACGUCU [U7A G9A U10C U11C C12G C13A]	1.07
GGGUCGUUAUUUAAUAAUCGCGUGGAUAUGGCACGCAAGUUUCUACCGGGCACCGUAAAUGUCCGACUGGAGCCGUUCGGGCGGCUAUAAACAGACCUCAGGCCCGAAGCGUGGCGGCACCUGCCGCCGGUGGUAAAAAAGAUCGGAAGAGCACACGUCU [G9A C12U C13A]	1.46
GGGUCGGAUGUAGAUAAUCGCGUGGAUAUGGCACGCAAGUUUCUACCGGGCACCGUAAAUGUCCGACUGGAGCCGUUCGGGCGGCUAUAAACAGACCUCAGGCCCGAAGCGUGGCGGCACCUGCCGCCGGUGGUAAAAAAGAUCGGAAGAGCACACGUCU [U7G U8A G9U U10G C12A C13G]	1.03
